Results from paper PMC5609118, “Purification and Characterization of Latent Polyphenol Oxidase from Apricot (Prunus armeniaca L.)” (Journal of Agricultural and Food Chemistry, 2017).
Values belong to the molecule of their own block, whether it stands above or below them.

Experiments:
[1] = target: T1, A-PaPPO (activated polyphenol oxidase from apricot) (Prunus armeniaca, UniProt O81103); assay: in-gel activity staining, partially denaturing SDS-PAGE; format: biochemical; details: 0.2 M catechol, 50 mM sodium citrate pH 6.5, 25 °C
T1 construct: gene PPO; native, from fruit; C-terminal domain lost during storage at 4 °C; 38 kDa by SDS-PAGE
T1 sequence (O81103 102-429): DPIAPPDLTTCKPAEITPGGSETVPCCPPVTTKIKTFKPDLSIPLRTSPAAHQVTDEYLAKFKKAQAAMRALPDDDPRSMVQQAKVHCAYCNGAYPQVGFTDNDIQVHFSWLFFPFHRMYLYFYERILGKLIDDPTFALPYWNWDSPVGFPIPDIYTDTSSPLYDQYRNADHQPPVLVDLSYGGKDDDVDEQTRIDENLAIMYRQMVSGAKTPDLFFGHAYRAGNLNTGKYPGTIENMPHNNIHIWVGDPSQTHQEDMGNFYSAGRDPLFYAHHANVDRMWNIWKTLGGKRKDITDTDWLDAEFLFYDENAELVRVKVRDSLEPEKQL

[2] = target: T2, L-PaPPO (latent polyphenol oxidase from apricot) (Prunus armeniaca, UniProt O81103); assay: inhibition of catechol oxidation, absorbance; format: biochemical; details: for activity at 1000 µM: read-out: 1 mM
T2 construct: gene PPO; native, purified from fruit; latent mature form Asp102-Ser597 (496 residues), transit peptide removed; 63 kDa by SDS-PAGE; no tag
Excerpt: inhibition of catechol oxidation, absorbance on L-PaPPO (latent polyphenol oxidase from apricot)

[3] = target: T2, L-PaPPO (latent polyphenol oxidase from apricot); assay: quinone formation, absorbance, microplate reader; nonlinear regression; format: biochemical; details: 50 mM sodium citrate pH 4.5, 25 °C, no SDS; triphenol substrate; latent enzyme activated in the assay
Excerpt: (§1) quinone formation, absorbance, microplate reader; nonlinear regression on L-PaPPO (latent polyphenol oxidase from apricot)

[4] = substrate: Oc1ccccc1O; assay: as above; format: biochemical, Prunus armeniaca; details: 50 mM sodium citrate pH 4.5, 25 °C, no SDS, diphenolase, latent enzyme activated in the assay
Excerpt: as §1

[5] = substrate: Cc1ccc(O)c(O)c1; assay: as above; format: biochemical, Prunus armeniaca; details: 50 mM sodium citrate pH 4.5, 25 °C, no SDS, diphenolase, latent enzyme activated in the assay
Excerpt: as §1

purified protein = substrate: O=C(/C=C/c1ccc(O)c(O)c1)O[C@@H]1C[C@](O)(C(=O)O)C[C@@H](O)[C@H]1O; assay: purified protein; details: 50 mM sodium citrate pH 4.5, 25 °C, no SDS, diphenolase, latent enzyme activated in the assay

Molecule: Oc1ccccc1O [catechol]
- in-gel activity staining, partially denaturing SDS-PAGE [1]: single band was detected by in-gel enzymatic activity staining with catechol as substrate

Molecule: O=c1cc(CO)occ1O [kojic acid]
- activity at 1000 µM [2]: 28 ± 1.1%

Molecule: O=C(O)c1ccccc1 [benzoic acid]
- activity at 1000 µM [2]: 41 ± 1.2%

B1: L-PaPPO (latent polyphenol oxidase from apricot) (Prunus armeniaca) (protein)
chain: DPIAPPDLTTCKPAEITPGGSETVPCCPPVTTKIKTFKPDLSIPLRTSPAAHQVTDEYLAKFKKAQAAMRALPDDDPRSMVQQAKVHCAYCNGAYPQVGFTDNDIQVHFSWLFFPFHRMYLYFYERILGKLIDDPTFALPYWNWDSPVGFPIPDIYTDTSSPLYDQYRNADHQPPVLVDLSYGGKDDDVDEQTRIDENLAIMYRQMVSGAKTPDLFFGHAYRAGNLNTGKYPGTIENMPHNNIHIWVGDPSQTHQEDMGNFYSAGRDPLFYAHHANVDRMWNIWKTLGGKRKDITDTDWLDAEFLFYDENAELVRVKVRDSLEPEKQLRYNYEPVSLPWLFTKPTARKTKNKTKAKVAATQLTSKFPATLVEVTTVEVARPKPRKRSKKEKVDEEELLIIKDIEFEGTEAVKFDVFINDDAESLSRRDKSEFAGSFVHVPQGKTTKAKTKTNLKLGITDLLEDLGAEDDSSVLVTLVPRVSNSPITIGGFKIEYSS
notes: native, purified from fruit; latent mature form Asp102-Ser597 (496 residues), transit peptide removed; 63 kDa by SDS-PAGE; no tag
- Km [4]: 5.3 ± 0.60 mM
- kcat [4]: 210 ± 30 s⁻¹
- kcat/Km [4]: 40000 ± 10000 M⁻¹ s⁻¹
- Km [5]: 2.0 ± 0.26 mM
- kcat [5]: 700 ± 110 s⁻¹
- kcat/Km [5]: 340000 ± 70000 M⁻¹ s⁻¹
- Km (purified protein): 2.7 ± 0.16 mM
- kcat (purified protein): 1400 s⁻¹
- kcat/Km (purified protein): 500000 M⁻¹ s⁻¹

Continued, values first:

- activity at 100 µM ([2]; read-out: 0.1 mM): 34 ± 1.4%
Molecule: CCCCCCc1ccc(O)cc1O [4-hexylresorcinol]

- activity at 10000 µM ([2]; read-out: 10 mM): 89.1 ± 0.53%
Molecule: O=C(O)CCC(=O)O [succinic acid]

- Km [3]: 11 ± 1.5 mM
Molecule: Oc1cccc(O)c1O [pyrogallol]
